The record followed here is patent EP4328239A1 (dated 2024).

For experiment [1], the target named is T1, MAGEA1 peptide on HLA-A*26:01 (human).
T1 peptide: EVYDGREHSA
The experiment in a line: cytokine release.

Experiment [2] deals with T2, MAGEA1 peptide on HLA-A*03:01 (human).
T2 peptide: SLFRAVITKK
The experiment in a line: cytokine release.

Experiment [3] has as its target T3, MAGEA1 peptide on HLA-A*03:01 (human).
T3 peptide: ESLFRAVITK
Description: cytokine release.

Experiment [4] deals with T4, MAGEA1 peptide on HLA-A*03:01 (human).
T4 peptide: LFRAVITKK
The experiment in a line: cytokine release.

Experiment [5] has as its target T5, MAGEA1 peptide on HLA-A*02:01 (human).
T5 peptide: VKVLEYVIKV
Description: cytokine release.

Experiment [6] deals with T6, MAGEA1 peptide on HLA-A*02:01 (human).
T6 peptide: KVLEYVIKVS
The experiment in a line: cytokine release.

The target of experiment [7] is T7, MAGEA1 peptide on HLA-A*02:01 (human).
T7 peptide: KVLEYVIKV
The experiment in a line: luciferase kill assay, 18 h; TCR-transduced CD8+ T cells against K562-HLA-A0201-MAGE-A1, cells that express the antigen (full-length MAGEA1); full-length, on cells.

In experiment [8] the target is T8, MAGEA1 peptide on HLA-B*07:02 (human).
T8 peptide: ARVRFFFPSL
The experiment in a line: cytokine release.

In experiment [9] the target is T9, MAGEA1 peptide on HLA-B*07:02 (human).
T9 peptide: RVRFFFPSLR
Description: cytokine release.

For experiment [10], the target named is T10, MAGEA1 peptide on HLA-B*44:03 (human).
T10 peptide: EEGPSTSCI
Description: killing.

Experiment [11] has as its target T11, MAGEA1 peptide on HLA-A*29:02 (human).
T11 peptide: LVGFLLLKY
The experiment in a line: cytokine release.

Experiment [12] deals with T12, MAGEA1 peptide on HLA-A*29:02 (human).
T12 peptide: DLVGFLLLKY
The experiment in a line: cytokine release.

The target of experiment [13] is T13, MAGEA1 peptide on HLA-B*44:03 (human).
T13 peptide: AETSYVKVL
Description: cytokine release.

The target in experiment [14] is T14, MAGEA1 peptide on HLA-B*44:03 (human).
T14 peptide: AETSYVKVLE
Description: cytokine release.

Experiment [15] has as its target T15, MAGEA1 peptide on HLA-B*44:03 (human).
T15 peptide: ALAETSYVKV
The experiment in a line: cytokine release.

The target in experiment [16] is T16, MAGEA1 peptide on HLA-B*44:03 (human).
T16 peptide: LAETSYVKVL
The experiment in a line: luciferase kill assay, 18 h; TCR-transduced CD8+ T cells against K562-HLA-B4403-MAGE-A1, cells that express the antigen (full-length MAGEA1); two donors; full-length, on cells.

The target in experiment [17] is T17, MAGEA1 peptide on HLA-B*44:03 (human).
T17 peptide: KVADLVGFLL
Description: killing.

Experiment [18] has as its target T18, MAGEA1 peptide on HLA-B*44:03 (human).
T18 peptide: VADLVGFLL
The experiment in a line: cytokine release.

For experiment [19], the target named is T19, MAGEA1 peptide on HLA-B*44:03 (human).
T19 peptide: ADLVGFLLLK
The experiment in a line: cytokine release.

The target in experiment [20] is T20, MAGEA1 peptide on HLA-B*57:03 (human).
T20 peptide: VADLVGFLL
The experiment in a line: cytokine release.

For experiment [21], the target named is T21, MAGEA1 peptide on HLA-B*57:03 (human).
T21 peptide: KVADLVGFL
Description: cytokine release.

For experiment [22], the target named is T22, MAGEA1 peptide on HLA-B*07:02 (human).
T22 peptide: RVRFFFPSL
The experiment in a line: luciferase kill assay, 18 h; TCR-transduced CD8+ T cells against K562-HLA-B0702-MAGE-A1, cells that express the antigen (full-length MAGEA1); full-length, on cells.

B1: TCR2 (TCR, V domains shown)
Valpha: AQKITQTQPGMFVQEKEAVTLDCTYDTSDPSYGLFWYKQPSSGEMIFLIYQGSYDQQNATEGRYSLNFQKARKSANLVISASQLGDSAMYFCASREGSARQLTFGSGTQLTVLP
Vbeta: DVKVTQSSRYLVKRTGEKVFLECVQDMDHENMFWYRQDPGLGLRLIYFSYDVKMKEKGDIPEGYSVSREKKERFSLILESASTNQTSMYLCASDSADTQYFGPGTRLTVL
With B1, the binding result in [1] is reported as “recognises”.

B2: TCR22 (TCR, V domains shown)
Valpha: SQQGEEDPQALSIQEGENATMNCSYKTSINNLQWYRQNSGRGLVHLILIRSNEREKHSGRLRVTLDTSKKSSSLLITASRAADTASYFCATDEGGAQKLVFGQGTRLTINP
Vbeta: DVKVTQSSRYLVKRTGEKVFLECVQDMDHENMFWYRQDPGLGLRLIYFSYDVKMKEKGDIPEGYSVSREKKERFSLILESASTNQTSMYLCATVGRGEDRGEQFFGPGTRLTVL
Take B2: the binding result in experiment [2], in [3] and in experiment [4] was “recognises” each time.

B3: TCR20 (TCR, V domains shown)
Valpha: QKEVEQNSGPLSVPEGAIASLNCTYSDRGSQSFFWYRQYSGKSPELIMFIYSNGDKEDGRFTAQLNKASQYVSLLIRDSQPSDSATYLCAVNAPRPGYSTLTFGKGTMLLVSP
Vbeta: DVKVTQSSRYLVKRTGEKVFLECVQDMDHENMFWYRQDPGLGLRLIYFSYDVKMKEKGDIPEGYSVSREKKERFSLILESASTNQTSMYLCASSLSMNTEAFFGQGTRLTVV
As to B3, the binding result in [5] and in experiment [6] was “recognises” throughout. In addition, in [7], the “EC50 killing capacity (E:T ratio at which 50% of target cells were killed)” value is 0.8 E:T ratio.

B4: TCR23 (TCR, V domains shown)
Valpha: AQKVTQAQTEISVVEKEDVTLDCVYETRDTTYYLFWYKQPPSGELVFLIRRNSFDEQNEISGRYSWNFQKSTSSFNFTITASQVVDSAVYFCALSVTYTGNQFYFGTGTSLTVIP
Vbeta: DSGVTQTPKHLITATGQRVTLRCSPRSGDLSVYWYQQSLDQGLQFLIQYYNGEERAKGNILERFSAQQFPDLHSELNLSSLELGDSALYFCASSVQGQGTDTQYFGPGTRLTVL
As for B4, the binding result in [8] and in [9] was “recognises” throughout.

B5: TCR8 (TCR, V domains shown)
Valpha: GQNIDQPTEMTATEGAIVQINCTYQTSGFNGLFWYQQHAGEAPTFLSYNVLDGLEEKGRFSSFLSRSKGYSYLLLKELQMKDSASYLCAPSSNTGKLIFGQGTTLQVKP
Vbeta: DAGVIQSPRHEVTEMGQEVTLRCKPISGHNSLFWYRQTMMRGLELLIYFNNNVPIDDSGMPEDRFSAKMPNASFSTLKIQPSEPRDSAVYFCASSLPQETQYFGPGTRLLVL
For the molecule B5, the binding result in experiment [10] was “recognises”.

B6: TCR4 (TCR, V domains shown)
Valpha: AQSVTQLGSHVSVSEGALVLLRCNYSSSVPPYLFWYVQYPNQGLQLLLKYTSAATLVKGINGFEAEFKKSETSFHLTKPSAHMSDAAEYFCAVSNSGNTPLVFGKGTRLSVIA
Vbeta: AAGVIQSPRHLIKEKRETATLKCYPIPRHDTVYWYQQGPGQDPQFLISFYEKMQSDKGSIPDRFSAQQFSDYHSELNMSSLELGDSALYFCASSSTTGDGYTFGSGTRLTVV
With B6, the binding result in experiment [11] and in experiment [12] was “recognises” each time.

B7: TCR5 (TCR, V domains shown)
Valpha: GQQLNQSPQSMFIQEGEDVSMNCTSSSIFNTWLWYKQEPGEGPVLLIALYKAGELTSNGRLTAQFGITRKDSFLNISASIPSDVGIYFCAGLRDNYGQNFVFGPGTRLSVLP
Vbeta: DGGITQSPKYLFRKEGQNVTLSCEQNLNHDAMYWYRQDPGQGLRLIYYSQIVNDFQKGDIAEGYSVSREKKESFPLTVTSAQKNPTAFYLCASRVGGFEGYTFGSGTRLTVV
Consider B7, for which the binding result in experiment [13], in experiment [14] and in experiment [15] was “recognises” each time. Further, in experiment [16], the “EC50 killing capacity (E:T ratio at which 50% of target cells were killed)” value was 0.4 E:T ratio.

B8: TCR6 (TCR, V domains shown)
Valpha: QKEVEQNSGPLSVPEGAIASLNCTYSDRGSQSFFWYRQYSGKSPELIMFIYSNGDKEDGRFTAQLNKASQYVSLLIRDSQPSDSATYLCAVSSNTGKLIFGQGTTLQVKP
Vbeta: DAGVIQSPRHEVTEMGQEVTLRCKPISGHNSLFWYRQTMMRGLELLIYFNNNVPIDDSGMPEDRFSAKMPNASFSTLKIQPSEPRDSAVYFCASKWGQGAGDTQYFGPGTRLTVL
In the case of B8, the binding result in experiment [17], in experiment [18] and in [19] was “recognises” throughout.

B9: TCR19 (TCR, V domains shown)
Valpha: AQTVTQSQPEMSVQEAETVTLSCTYDTSENNYYLFWYKQPPSRQMILVIRQEAYKQQNATENRFSVNFQKAAKSFSLKISDSQLGDTAMYFCAFISGYSTLTFGKGTMLLVSP
Vbeta: EAQVTQNPRYLITVTGKKLTVTCSQNMNHEYMSWYRQDPGLGLRQIYYSMNVEVTDKGDVPEGYKVSRKEKRNFPLILESPSPNQTSLYFCASRTSHPQTYEQYFGPGTRLTVT
Take B9: the binding result in experiment [8] and in experiment [9] was “recognises” throughout.

B10: TCR24 (TCR, V domains shown)
Valpha: KNQVEQSPQSLIILEGKNCTLQCNYTVSPFSNLRWYKQDTGRGPVSLTIMTFSENTKSNGRYTATLDADTKQSSLHITASQLSDSASYICVVSNNAGNMLTFGGGTRLMVKP
Vbeta: DAMVIQNPRYQVTQFGKPVTLSCSQTLNHNVMYWYQQKSSQAPKLLFHYYDKDFNNEADTPDNFQSRRPNTSFCFLDIRSPGLGDTAMYLCATSRESLGRDEQFFGPGTRLTVL
As for B10, the binding result in [2], in experiment [3] and in experiment [4] was “recognises” throughout.

B11: TCR1 (TCR, V domains shown)
Valpha: GNSVTQMEGPVTLSEEAFLTINCTYTATGYPSLFWYVQYPGEGLQLLLKATKADDKGSNKGFEATYRKETTSFHLEKGSVQVSDSAVYFCALSGGGSYIPTFGRGTSLIVHP
Vbeta: EAGVAQSPRYKIIEKRQSVAFWCNPISGHATLYWYQQILGQGPKLLIQFQNNGVVDDSQLPKDRFSAERLKGVDSTLKIQPAKLEDSAVYLCASSSPGQLNTEAFFGQGTRLTVV
As to B11, the binding result in experiment [20] and in [21] was “recognises” each time.

B12: TCR18.2 (TCR, V domains shown)
Valpha: GQQVMQIPQYQHVQEGEDFTTYCNSSTTLSNIQWYKQRPGGHPVFLIQLVKSGEVKKQKRLTFQFGEAKKNSSLHITATQTTDVGTYFCANRDNYGQNFVFGPGTRLSVLP
Vbeta: EAQVTQNPRYLITVTGKKLTVTCSQNMNHEYMSWYRQDPGLGLRQIYYSMNVEVTDKGDVPEGYKVSRKEKRNFPLILESPSPNQTSLYFCASTRTGTLPEAFFGQGTRLTVV
As for B12, the binding result in experiment [8] and in experiment [9] was “recognises” throughout. Besides, the “EC50 killing capacity (E:T ratio at which 50% of target cells were killed)” value in [22] is 20 E:T ratio.

B13: TCR18.1 (TCR, V domains shown)
Valpha: GQQVMQIPQYQHVQEGEDFTTYCNSSTTLSNIQWYKQRPGGHPVFLIQLVKSGEVKKQKRLTFQFGEAKKNSSLHITATQTTDVGTYFCANRDNYGQNFVFGPGTRLSVLP
Vbeta: EAQVTQNPRYLITVTGKKLTVTCSQNMNHEYMSWYRQDPGLGLRQIYYSMNVEVTDKGDVPEGYKVSRKEKRNFPLILESPSPNQTSLYFCASSRTSGISYEQYFGPGTRLTVT
Regarding B13, the binding result in [8] and in [9] was “recognises” in each case.
